Source: the supplement of paper PMC10567573

B1: ZBED2 (parent)
chain: RAGHHPNQYATCRLCGRQVSRGPG

Variants of: B1
Assay: protein stability index of a GFP-peptide fusion (GPS, HEK-293T) (PSI 1-6); higher = more stable
Details: c terminus: a fixed tail appended
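Also: lentivirally expressed fusions sorted by FACS into six bins by GFP to DsRed ratio, PSI derived from sequencing read proportions per bin multiplied by bin number.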

Protein stability index of substitutions, site by site:
L14: G 2.04 | R 2.39 | N 1.25 | Q 1.15 | C 2.79 | I 1.48 | H 1.75 | V 1.07 | S 1.57 | T 1.49 | K 2.66 | P 1.82 | W 2.12 | A 1.78
H4: E 2.16 | Y 1.24 | D 2.09 | G 2.21 | A 2.76 | C 1.84 | V 2.31 | N 3.52 | R 1.12 | T 2.78 | I 3.21 | L 1.78 | K 1.56
G22: S 2.53 | T 2.24 | M 1.57 | H 2.12 | W 1.46 | L 2.48 | K 2.68 | C 3.07 | V 1.77 | A 2.21 | D 1.64 | E 2.08 | R 1.95 | P 2.57 | F 1.55 | I 1.9 | N 2.29
G16: H 1.9 | E 2.46 | Q 1.81 | K 1.51 | T 1.41 | N 2.51 | C 1.25 | S 2.2 | P 2.41 | D 1.78 | W 3.77 | Y 3.58
A2: Q 1.4 | Y 2.04 | M 1.97 | N 2.11 | P 1.73 | L 2.19 | S 2.04
Y9: I 2.06 | L 1.6 | F 1.67 | H 2.28 | S 2.72 | N 2.33 | P 3.34 | A 2.33
T11: M 3.7 | L 1.7 | K 2.56 | E 2.84 | F 3.34 | R 2.01 | N 1.97 | I 2.27 | S 1.5 | Y 3.09
Q18: H 2.59 | F 2.67 | W 1.27 | P 2.69 | G 2.68 | E 1 | Y 2.51 | A 2.44 | I 2.23 | M 2.17 | S 1.23 | N 2.12
R13: H 1.59 | S 2.79 | E 1.9 | L 1.58 | F 1.36 | Y 2.42 | Q 1.04 | P 3.18 | V 2.39 | K 2.1 | W 1.98 | M 2.24 | I 2.09 | T 2.4 | D 1.96
G3: W 3.31 | V 1.64 | A 2.29 | C 4.01 | E 2.06 | H 1.25 | L 2.27 | S 1.57 | I 1.55 | K 2.66 | M 2.52 | Q 1.75 | R 2.09 | D 2.58 | T 2.19
P6: F 1.33 | Y 1.02 | N 1.72 | D 2.02 | R 1.83 | G 2.54 | S 1.72 | I 1.45 | H 2.31
R17: K 3.01 | E 1.93 | T 2.26 | C 1.91 | N 1.31 | F 1.96 | H 1.29 | L 2.64 | I 1.86 | D 2.96 | V 1.49 | A 1.69 | S 1.79 | Q 1.3
N7: M 2.04 | R 1.46 | E 2.52 | F 1.08 | A 1.78 | S 1.88 | Y 2.9 | L 2.67 | P 1.56 | K 1.81
A10: M 1.8 | G 2.12 | H 2.02 | W 1.76 | R 1.43 | D 1.79 | L 2.12 | E 1.6 | V 1.43 | T 2.78 | K 1.67 | S 2.2 | C 2.67 | Y 1.34 | I 1.43 | N 1.64 | F 2.67
G24: A 1.24 | H 2.15 | V 1.61 | P 1.71 | I 2.11 | W 1.97 | N 2.42 | S 1.56 | M 2.17 | Y 1.57 | K 2.03 | D 1.7 | E 2.35 | L 2.07 | F 1.17 | T 2.17 | R 1.8 | C 1.53
Q8: D 3.31 | P 2.03 | Y 1.13 | K 2.78 | F 2.11 | I 1.57 | G 1.86 | H 1.9 | N 1.68 | E 3.47 | M 1.23 | S 1.05
P23: C 2.96 | D 2.85 | H 2.54 | I 2.27 | M 1.77 | T 2.2 | V 1.84 | Y 1.54 | E 1.76 | N 1.88 | Q 2.11 | R 2.8 | S 2.05 | F 1.54
C15: N 2.19 | S 2.34 | T 3.44 | F 1.7 | K 3.16 | D 3.55 | V 2.2 | L 1.85 | H 1.93 | P 3.18 | I 1.95 | Y 1.42 | G 2.6 | A 1.4 | R 2.83
R21: N 2.88 | S 1.65 | M 1.68 | L 2.03 | H 2.04 | F 1.78 | Y 1.85 | T 1.78 | I 2.35 | Q 2.25 | K 1.69 | E 2.45 | C 2.54
S20: C 2.49 | D 1.93 | P 2.53 | L 2.29 | I 1.48 | E 2.88 | V 2.08 | R 2.26 | F 1.79 | T 1.91 | N 1.79 | K 1.88 | W 1.59 | G 1.78 | M 2.4 | Q 2.21 | H 1.76
H5: M 2.41 | D 3.27 | I 2.27 | Q 2.16 | K 2.51 | N 2.5 | T 1.37 | E 3.69 | F 1.89 | G 1.68 | C 1.93 | Y 2.37 | L 1.86 | A 2.48
C12: P 2.98 | V 2.49 | T 3.19 | D 2.88 | G 3.16 | L 2.27 | M 2.28 | K 2.4 | S 3.52 | H 2.49 | F 1.81 | R 3.2 | E 3.66 | Q 3.12 | A 3.19 | I 2.64
V19: Y 2.24 | E 1.7 | T 2.22 | K 3.86 | H 3.82 | M 1.48 | F 2.08 | S 1.65 | P 1.98 | N 1.4 | Q 2.48 | G 2.53 | I 1.37 | C 3.7
